One assay addresses bovine trypsin (bovine) (UniProt P00760). The assay is described as follows: enzyme inhibition; trypsin 48.5 pM.
The target in another assay is human plasmin (human) (UniProt P00747). Kind of assay: enzyme inhibition; human plasmin 50 pM.
In assay [1] the target is human plasma kallikrein (human) (UniProt P03952). The assay is described as follows: enzyme inhibition; apparent Ki.
Assay [2] has as its target bovine pancreatic kallikrein (bovine). Kind of assay: enzyme inhibition; bovine pancreatic kallikrein 92.0 pM.
The target is the same in assay [3]. Kind of assay: enzyme inhibition, tight-binding fit; bovine pancreatic kallikrein 92 pM, PFR-AMC.
Assay [4] shares this target. Kind of assay: enzyme inhibition; comparison of Ki values with aprotinin.

This note sets out measurements from patent US7019123.

Chain of bovine trypsin (bovine) (P00760 24-246): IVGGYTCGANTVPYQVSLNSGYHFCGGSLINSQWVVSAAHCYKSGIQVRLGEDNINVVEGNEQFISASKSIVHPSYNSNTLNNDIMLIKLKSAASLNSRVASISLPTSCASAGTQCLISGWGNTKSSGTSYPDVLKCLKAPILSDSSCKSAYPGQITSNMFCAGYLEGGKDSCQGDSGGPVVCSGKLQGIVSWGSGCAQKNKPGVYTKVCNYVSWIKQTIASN
Chain of human plasma kallikrein (human) (P03952 20-638 limits assumed): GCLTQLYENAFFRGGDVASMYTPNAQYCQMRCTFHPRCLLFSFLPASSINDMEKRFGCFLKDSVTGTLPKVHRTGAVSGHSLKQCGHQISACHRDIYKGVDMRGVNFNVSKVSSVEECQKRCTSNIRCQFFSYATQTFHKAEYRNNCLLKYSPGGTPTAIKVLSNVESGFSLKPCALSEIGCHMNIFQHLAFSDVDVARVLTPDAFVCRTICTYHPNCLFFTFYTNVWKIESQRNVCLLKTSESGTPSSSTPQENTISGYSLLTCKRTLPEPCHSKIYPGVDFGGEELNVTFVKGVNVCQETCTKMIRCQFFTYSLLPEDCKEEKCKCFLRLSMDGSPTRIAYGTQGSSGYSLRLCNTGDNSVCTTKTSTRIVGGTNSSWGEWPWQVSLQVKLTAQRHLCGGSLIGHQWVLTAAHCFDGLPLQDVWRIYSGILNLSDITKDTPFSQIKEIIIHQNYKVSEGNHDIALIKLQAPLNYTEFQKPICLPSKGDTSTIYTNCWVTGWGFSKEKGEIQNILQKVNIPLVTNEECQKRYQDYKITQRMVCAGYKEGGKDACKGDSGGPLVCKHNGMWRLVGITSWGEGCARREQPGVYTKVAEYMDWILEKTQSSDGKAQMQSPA
Chain of human plasmin (human) (P00747 97-810 limits assumed): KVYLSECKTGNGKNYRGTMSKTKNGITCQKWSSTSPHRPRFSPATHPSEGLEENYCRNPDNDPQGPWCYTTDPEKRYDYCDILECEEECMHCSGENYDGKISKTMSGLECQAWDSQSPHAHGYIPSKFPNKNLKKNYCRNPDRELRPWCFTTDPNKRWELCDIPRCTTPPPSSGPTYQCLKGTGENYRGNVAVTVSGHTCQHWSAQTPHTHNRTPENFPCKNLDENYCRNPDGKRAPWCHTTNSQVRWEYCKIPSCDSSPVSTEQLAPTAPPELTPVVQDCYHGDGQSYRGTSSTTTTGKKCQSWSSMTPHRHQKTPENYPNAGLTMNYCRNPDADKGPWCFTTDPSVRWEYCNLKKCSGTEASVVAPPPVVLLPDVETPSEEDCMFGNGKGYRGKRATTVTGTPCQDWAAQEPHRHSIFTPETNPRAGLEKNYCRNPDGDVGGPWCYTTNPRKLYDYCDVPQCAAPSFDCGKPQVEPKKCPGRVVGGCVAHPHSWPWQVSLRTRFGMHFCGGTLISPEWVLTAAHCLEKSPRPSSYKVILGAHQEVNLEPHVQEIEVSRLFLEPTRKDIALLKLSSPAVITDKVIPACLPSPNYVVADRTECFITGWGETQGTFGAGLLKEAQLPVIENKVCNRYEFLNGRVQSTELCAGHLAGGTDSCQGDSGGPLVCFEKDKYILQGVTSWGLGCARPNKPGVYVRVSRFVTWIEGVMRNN

“native human placental bikunin isolated from placenta (from UniProt O43291 28-203)”: the values for the Ki with bovine trypsin (bovine) and in the assay with human plasmin (human) were 0.13 nM and 1.9 nM, respectively.

With “recombinant placental bikunin (102-159) expressed in yeast SC101 (from UniProt O43291 129-186)”, the Ki in assay [1] was 0.35 nM. In assay [2], “synthetic placental bikunin (7-64), first preparation (from UniProt O43291 34-91)” had a Ki of 0.4 nM.

As for “synthetic placental bikunin (102-159) (from UniProt O43291 129-186)”, the Ki in assay [3] and in assay [2] was 0.4 nM throughout. Moreover, the fold higher Ki than aprotinin in assay [4] amounted to 20 fold.
